Reference: patent US20150196663A1

Molecular target: rat transferrin receptor (rat) (UniProt Q99376)
Assay: cell-based or functional assay

Chain of UniProt Q99376 (Q99376 whole entry): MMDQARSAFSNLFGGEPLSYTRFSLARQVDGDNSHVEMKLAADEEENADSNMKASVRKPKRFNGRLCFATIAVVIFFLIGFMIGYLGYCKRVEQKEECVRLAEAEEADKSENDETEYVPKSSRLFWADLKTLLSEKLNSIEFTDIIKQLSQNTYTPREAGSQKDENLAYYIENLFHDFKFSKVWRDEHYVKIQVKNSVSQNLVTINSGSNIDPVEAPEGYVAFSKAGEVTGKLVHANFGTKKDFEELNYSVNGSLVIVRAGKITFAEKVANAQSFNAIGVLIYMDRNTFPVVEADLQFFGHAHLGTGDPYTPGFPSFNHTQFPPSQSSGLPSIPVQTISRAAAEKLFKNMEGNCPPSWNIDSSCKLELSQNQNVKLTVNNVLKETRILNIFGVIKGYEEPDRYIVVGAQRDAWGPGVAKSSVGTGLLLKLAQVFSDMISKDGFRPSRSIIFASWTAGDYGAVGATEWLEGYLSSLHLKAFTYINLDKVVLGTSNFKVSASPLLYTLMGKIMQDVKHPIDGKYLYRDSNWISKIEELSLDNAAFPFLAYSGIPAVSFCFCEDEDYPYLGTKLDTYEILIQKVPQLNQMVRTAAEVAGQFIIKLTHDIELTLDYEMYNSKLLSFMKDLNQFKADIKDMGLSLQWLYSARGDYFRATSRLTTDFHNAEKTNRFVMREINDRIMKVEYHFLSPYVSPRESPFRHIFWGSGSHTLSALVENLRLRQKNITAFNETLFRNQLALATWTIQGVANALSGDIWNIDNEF

- percentage of RBE4 cells exhibiting multiple internalized vesicles per cell: 92%
- percentage of primary BMECs exhibiting multiple internalized vesicles per cell: 46%
Substance: OX-26, positive control antibody against the rat transferrin receptor (AbD Serotec, # MCA155G)
